Data from patent EP4803150A2 (Lyvgen Biopharma Holdings Limited, dated 2026).

T1: CD19 (human, UniProt P15391 20-556)
T1 construct: whole, on cells
T1 sequence (looked up): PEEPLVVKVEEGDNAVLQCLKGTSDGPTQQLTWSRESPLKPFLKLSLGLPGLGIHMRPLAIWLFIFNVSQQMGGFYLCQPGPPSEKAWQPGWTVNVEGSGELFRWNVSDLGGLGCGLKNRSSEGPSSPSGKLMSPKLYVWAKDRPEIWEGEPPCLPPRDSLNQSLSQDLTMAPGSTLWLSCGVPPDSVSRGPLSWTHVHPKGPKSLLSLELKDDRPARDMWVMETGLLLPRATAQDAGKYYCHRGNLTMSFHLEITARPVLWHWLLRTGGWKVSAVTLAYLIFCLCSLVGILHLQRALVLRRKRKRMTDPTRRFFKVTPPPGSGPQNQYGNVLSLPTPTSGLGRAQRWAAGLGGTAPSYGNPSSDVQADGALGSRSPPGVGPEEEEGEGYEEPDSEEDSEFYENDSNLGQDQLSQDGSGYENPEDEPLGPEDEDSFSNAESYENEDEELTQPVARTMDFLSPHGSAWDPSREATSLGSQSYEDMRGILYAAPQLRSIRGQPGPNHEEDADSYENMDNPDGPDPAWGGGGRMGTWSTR


Experiments:
CD19 = molecular target: T1, CD19; assay: CHO cells overexpressing CD19, graded
CD137 = molecular target: T2, CD137 (human, UniProt Q07011 24-186); assay: FCM or ELISA, graded
T2 construct: Whole on GS-H2-huCD137 reporter cells in the reporter assays; also called 4-1BB

Row | binding result (CD19) | binding result (CD137) | Binder
1 | binds | binds | Ly2943 (multi-specific antibody, CD19/CD20/CD3/CD137) chain 1: QVQLQQPGAELVKPGASVKMSCKASGYTFTSYNMHWVKQTPGRGLEWIGAIYPGNGDTSYNQKFKGKATLTADKSSSTAYMQLSSLTSEDSAVYYCARSTYYGGDWYFNVWGAGTTVTVSAASVAAPSVFIFPPSDEQLKSGTASVVCLLNNFYPREAKVQWKVDNALQSGNSQESVTEQDSKDSTYSLSSTLTLSKADYEKHKVYACEVTHQGLSSPVTKSFNRGECGGGGSGGGGSGGGGSGGGGSEVQLVESGGGLVQPGGSLRLSCAASGFTFSTYAMNWVRQAPGKGLEWVGRIRSKYNNYATYYADSVKGRFTISRDDSKNSLYLQMNSLKTEDTAVYYCVRHGNFGNSYVSWFAYWGQGTLVTVSSGGGGSDKTHTCPPCPAPELLGPSVFLFPPKPKDTLMISRTPEVTCVVVDVSHEDPEVKFNWYVDGVEVHNAKTKPREEQYNSTYRVVSVLTVLHQDWLNGKEYKCKVSNKALGAPIEKTISKAKGQPREPQVYTLPPSREEMTKNQVSLWCLVKGFYPSDIAVEWESNGQPENNYKTTPPVLDSDGSFFLYSKLTVDKSRWQQGNVFSCSVMHEALHNHYTQKSLSLSPGKGGGGSGGGGSGGGGSGGGGSQVQLVQSGAEVKKPGASVKVSCKASGYTFAGFEMHWVRQAPGQGLEWMGAIDPKTGGTDYNQKFKDRVTMTRDTSISTAYMELSRLRSDDTAVYYCARDLGYFDVWGQGTLVTVSS chain 2: QVQLQQSGAELVRPGSSVKISCKASGYAFSSYWMNWVKQRPGQGLEWIGQIWPGDGDTNYNGKFKGKATLTADESSSTAYMQLSSLASEDSAVYFCARRETTTVGRYYYAMDYWGQGTTVTVSSASTKGPSVFPLAPSSKSTSGGTAALGCLVKDYFPEPVTVSWNSGALTSGVHTFPAVLQSSGLYSLSSVVTVPSSSLGTQTYICNVNHKPSNTKVDKKVEPKSCGGGGSGGGGSGGGGSGGGGSQAVVTQEPSLTVSPGGTVTLTCRSSTGAVTTSNYANWVQQKPGQAPRGLIGGTNKRAPWTPARFSGSLLGGKAALTITGAQAEDEADYYCALWYSNLWVFGGGTKLTVLGGGGSDKTHTCPPCPAPELLGPSVFLFPPKPKDTLMISRTPEVTCVVVDVSHEDPEVKFNWYVDGVEVHNAKTKPREEQYNSTYRVVSVLTVLHQDWLNGKEYKCKVSNKALGAPIEKTISKAKGQPREPQVYTLPPSREEMTKNQVSLSCAVKGFYPSDIAVEWESNGQPENNYKTTPPVLDSDGSFFLVSKLTVDKSRWQQGNVFSCSVMHEALHNRFTQKSLSLSPGKGGGGSGGGGSGGGGSGGGGSDIQMTQSPSSLSASVGDRVTITCRASQDIRSNLNWYQQKPGGAVKLLIYYTSRLHSGVPSRFSGSGSGTDYTLTISSLQPEDFATYFCQQSEKLPRTFGGGTKVEIR chain 3: QIVLSQSPAILSASPGEKVTMTCRASSSVSYIHWFQQKPGSSPKPWIYATSNLASGVPVRFSGSGSGTSYSLTISRVEAEDAATYYCQQWTSNPPTFGGGTKLEIKSSASTKGPSVFPLAPSSKSTSGGTAALGCLVKDYFPEPVTVSWNSGALTSGVHTFPAVLQSSGLYSLSSVVTVPSSSLGTQTYICNVNHKPSNTKVDKKVEPKSC chain 4: not shown
2 | binds | binds | Ly2802 (multi-specific antibody, CD19/CD20/CD3/CD137) chain 1: QVQLQQSGAELVRPGSSVKISCKASGYAFSSYWMNWVKQRPGQGLEWIGQIWPGDGDTNYNGKFKGKATLTADESSSTAYMQLSSLASEDSAVYFCARRETTTVGRYYYAMDYWGQGTTVTVSSASVAAPSVFIFPPSDEQLKSGTASVVCLLNNFYPREAKVQWKVDNALQSGNSQESVTEQDSKDSTYSLSSTLTLSKADYEKHKVYACEVTHQGLSSPVTKSFNRGECGGGGSGGGGSGGGGSGGGGSEVQLVESGGGLVQPGGSLRLSCAASGFTFSTYAMNWVRQAPGKGLEWVGRIRSKYNNYATYYADSVKGRFTISRDDSKNSLYLQMNSLKTEDTAVYYCVRHGNFGNSYVSWFAYWGQGTLVTVSSGGGGSDKTHTCPPCPAPELLGPSVFLFPPKPKDTLMISRTPEVTCVVVDVSHEDPEVKFNWYVDGVEVHNAKTKPREEQYNSTYRVVSVLTVLHQDWLNGKEYKCKVSNKALGAPIEKTISKAKGQPREPQVYTLPPSREEMTKNQVSLWCLVKGFYPSDIAVEWESNGQPENNYKTTPPVLDSDGSFFLYSKLTVDKSRWQQGNVFSCSVMHEALHNHYTQKSLSLSPGKGGGGSGGGGSGGGGSGGGGSQVQLVQSGAEVKKPGASVKVSCKASGYTFAGFEMHWVRQAPGQGLEWMGAIDPKTGGTDYNQKFKDRVTMTRDTSISTAYMELSRLRSDDTAVYYCARDLGYFDVWGQGTLVTVSS chain 2: QVQLQQPGAELVKPGASVKMSCKASGYTFTSYNMHWVKQTPGRGLEWIGAIYPGNGDTSYNQKFKGKATLTADKSSSTAYMQLSSLTSEDSAVYYCARSTYYGGDWYFNVWGAGTTVTVSAASTKGPSVFPLAPSSKSTSGGTAALGCLVKDYFPEPVTVSWNSGALTSGVHTFPAVLQSSGLYSLSSVVTVPSSSLGTQTYICNVNHKPSNTKVDKKVEPKSCGGGGSGGGGSGGGGSGGGGSQAVVTQEPSLTVSPGGTVTLTCRSSTGAVTTSNYANWVQQKPGQAPRGLIGGTNKRAPWTPARFSGSLLGGKAALTITGAQAEDEADYYCALWYSNLWVFGGGTKLTVLGGGGSDKTHTCPPCPAPELLGPSVFLFPPKPKDTLMISRTPEVTCVVVDVSHEDPEVKFNWYVDGVEVHNAKTKPREEQYNSTYRVVSVLTVLHQDWLNGKEYKCKVSNKALGAPIEKTISKAKGQPREPQVYTLPPSREEMTKNQVSLSCAVKGFYPSDIAVEWESNGQPENNYKTTPPVLDSDGSFFLVSKLTVDKSRWQQGNVFSCSVMHEALHNHYTQKSLSLSPGKGGGGSGGGGSGGGGSGGGGSDIQMTQSPSSLSASVGDRVTITCRASQDIRSNLNWYQQKPGGAVKLLIYYTSRLHSGVPSRFSGSGSGTDYTLTISSLQPEDFATYFCQQSEKLPRTFGGGTKVEIR chain 3: DIQLTQSPASLAVSLGQRATISCKASQSVDYDGDSYLNWYQQIPGQPPKLLIYDASNLVSGIPPRFSGSGSGTDFTLNIHPVEKVDAATYHCQQSTEDPWTFGGGTKLEIKSSASTKGPSVFPLAPSSKSTSGGTAALGCLVKDYFPEPVTVSWNSGALTSGVHTFPAVLQSSGLYSLSSVVTVPSSSLGTQTYICNVNHKPSNTKVDKKVEPKSC chain 4: QIVLSQSPAILSASPGEKVTMTCRASSSVSYIHWFQQKPGSSPKPWIYATSNLASGVPVRFSGSGSGTSYSLTISRVEAEDAATYYCQQWTSNPPTFGGGTKLEIKRTVAAPSVFIFPPSDEQLKSGTASVVCLLNNFYPREAKVQWKVDNALQSGNSQESVTEQDSKDSTYSLSSTLTLSKADYEKHKVYACEVTHQGLSSPVTKSFNRGEC
3 | binds | binds | Ly2944 (multi-specific antibody, CD19/CD20/CD3/CD137) chain 1: QVQLQQSGAELVRPGSSVKISCKASGYAFSSYWMNWVKQRPGQGLEWIGQIWPGDGDTNYNGKFKGKATLTADESSSTAYMQLSSLASEDSAVYFCARRETTTVGRYYYAMDYWGQGTTVTVSSASVAAPSVFIFPPSDEQLKSGTASVVCLLNNFYPREAKVQWKVDNALQSGNSQESVTEQDSKDSTYSLSSTLTLSKADYEKHKVYACEVTHQGLSSPVTKSFNRGECGGGGSGGGGSGGGGSGGGGSEVQLVESGGGLVQPGGSLRLSCAASGFTFSTYAMNWVRQAPGKGLEWVGRIRSKYNNYATYYADSVKGRFTISRDDSKNSLYLQMNSLKTEDTAVYYCVRHGNFGNSYVSWFAYWGQGTLVTVSSGGGGSDKTHTCPPCPAPELLGPSVFLFPPKPKDTLMISRTPEVTCVVVDVSHEDPEVKFNWYVDGVEVHNAKTKPREEQYNSTYRVVSVLTVLHQDWLNGKEYKCKVSNKALGAPIEKTISKAKGQPREPQVYTLPPSREEMTKNQVSLWCLVKGFYPSDIAVEWESNGQPENNYKTTPPVLDSDGSFFLYSKLTVDKSRWQQGNVFSCSVMHEALHNHYTQKSLSLSPGKGGGGSGGGGSGGGGSGGGGSQVQLVQSGAEVKKPGASVKVSCKASGYTFAGFEMHWVRQAPGQGLEWMGAIDPKTGGTDYNQKFKDRVTMTRDTSISTAYMELSRLRSDDTAVYYCARDLGYFDVWGQGTLVTVSS chain 2: QVQLQQPGAELVKPGASVKMSCKASGYTFTSYNMHWVKQTPGRGLEWIGAIYPGNGDTSYNQKFKGKATLTADKSSSTAYMQLSSLTSEDSAVYYCARSTYYGGDWYFNVWGAGTTVTVSAASTKGPSVFPLAPSSKSTSGGTAALGCLVKDYFPEPVTVSWNSGALTSGVHTFPAVLQSSGLYSLSSVVTVPSSSLGTQTYICNVNHKPSNTKVDKKVEPKSCGGGGSGGGGSGGGGSGGGGSQAVVTQEPSLTVSPGGTVTLTCRSSTGAVTTSNYANWVQQKPGQAPRGLIGGTNKRAPWTPARFSGSLLGGKAALTITGAQAEDEADYYCALWYSNLWVFGGGTKLTVLGGGGSDKTHTCPPCPAPELLGPSVFLFPPKPKDTLMISRTPEVTCVVVDVSHEDPEVKFNWYVDGVEVHNAKTKPREEQYNSTYRVVSVLTVLHQDWLNGKEYKCKVSNKALGAPIEKTISKAKGQPREPQVYTLPPSREEMTKNQVSLSCAVKGFYPSDIAVEWESNGQPENNYKTTPPVLDSDGSFFLVSKLTVDKSRWQQGNVFSCSVMHEALHNRFTQKSLSLSPGKGGGGSGGGGSGGGGSGGGGSDIQMTQSPSSLSASVGDRVTITCRASQDIRSNLNWYQQKPGGAVKLLIYYTSRLHSGVPSRFSGSGSGTDYTLTISSLQPEDFATYFCQQSEKLPRTFGGGTKVEIR chain 3: DIQLTQSPASLAVSLGQRATISCKASQSVDYDGDSYLNWYQQIPGQPPKLLIYDASNLVSGIPPRFSGSGSGTDFTLNIHPVEKVDAATYHCQQSTEDPWTFGGGTKLEIKSSASTKGPSVFPLAPSSKSTSGGTAALGCLVKDYFPEPVTVSWNSGALTSGVHTFPAVLQSSGLYSLSSVVTVPSSSLGTQTYICNVNHKPSNTKVDKKVEPKSC chain 4: QIVLSQSPAILSASPGEKVTMTCRASSSVSYIHWFQQKPGSSPKPWIYATSNLASGVPVRFSGSGSGTSYSLTISRVEAEDAATYYCQQWTSNPPTFGGGTKLEIKRTVAAPSVFIFPPSDEQLKSGTASVVCLLNNFYPREAKVQWKVDNALQSGNSQESVTEQDSKDSTYSLSSTLTLSKADYEKHKVYACEVTHQGLSSPVTKSFNRGEC
